Source: article PMC6032326, “Connexin43 Carboxyl-Terminal Domain Directly Interacts with β-Catenin” (International Journal of Molecular Sciences, 2018)
Values joined by “and” are separate entries in the source; they are usually repeats but may differ in a detail not shown here. Equal entries are not always repeated.

Tests used:
[1] = target: T1, Connexin43 carboxyl-terminal domain (V236–I382) (rat, UniProt P08050 236-382, 15N-labelled); test: NMR titration; 15N-HSQC at 7 °C; 15N-labelled Cx43CT (WT, Y313D or Y265,313D) at constant 35 μM, unlabelled β-catenin, β-catenin CT or β-catenin ΔCT added up to 285 μM; 1x PBS pH 7.8, 2 mM dithiothreitol; KD from the fit of the decrease in signal intensity; conditions: both partners purified
T1 construct: Connexin43 (Cx43), rat, carboxyl-terminal domain, residues V236-I382; pGEX-6P-2 carries a PreScission site, so GST was probably cleaved (surmise); also called Cx43CT; Cx43CT WT; source: bacterial expression vector pGEX-6P-2, expressed and purified in 1x PBS as previously described

[2] = target: T2, Cx43CT Y313D (rat, UniProt P08050 236-382, Y313D, 15N-labelled); test: as above; conditions: both partners purified
T2 construct: Connexin43 (Cx43), rat, carboxyl-terminal domain, residues V236-I382, with the phosphomimetic Y313D; The mutation was put into 'the Cx43CT plasmid'; also called single phosphomimetic; source: bacterial expression vector pGEX-6P-2, expressed and purified in 1x PBS as previously described

B1: β-catenin carboxyl-terminal (CT) domain (S681–L781) (domain or fragment, human, UniProt P35222 681-781, looked up)
chain: SLFRTEPMAWNETADLGLDIGAQGEPLGYRQDDPSYRSFHSGGYGQDALGMDPMMEHEMGGHHPGADYPVDGLPDLGHAQDLMDGLPPGDSNQLAWFDTDL
notes: β-catenin, human, C-terminal domain, residues S681-L781; also called β-catenin CT; β-catenin CT domain
Kd [1]: 210 µM and 202 µM
Kd [2]: 341 µM
